Measured values reported in patent publication US20200140552A1 (Sanofi, published 2020).
Changes are numbered by the printed parent chain.

B1: CD38SB19xCD28supxCD3mid trispecific binding protein (other)
VH 1: QVQLVQSGAEVVKPGASVKVSCKASGYTFTSYYIHWVRQAPGQGLEWIGSIYPGNVNTNYAQKFQGRATLTVDTSISTAYMELSRLRSDDTAVYYCTRSHYGLDWNFDVWGKGTTVTVSS
VL 1: DIQMTQSPSSLSASVGDRVTITCQASQNIYVWLNWYQQKPGKAPKLLIYKASNLHTGVPSRFSGSGSGTDFTLTISSLQPEDIATYYCQQGQTYPYTFGQGTKLEIK
VH 2: QVQLVESGGGVVQPGRSLRLSCAASGFTFTKAWMHWVRQAPGKQLEWVAQIKDKSNSYATYYADSVKGRFTISRDDSKNTLYLQMNSLRAEDTAVYYCRGVYYALSPFDYWGQGTLVTVSS
VL 2: DIVMTQTPLSLSVTPGQPASISCKSSQSLVHNNANTYLSWYLQKPGQSPQSLIYKVSNRFSGVPDRFSGSGSGTDFTLKISRVEAEDVGVYYCGQGTQYPFTFGSGTKVEIK
VH 3: QVQLVQSGAEVAKPGTSVKLSCKASGYTFTDYWMQWVKQRPGQGLEWIGTIYPGDGDTGYAQKFQGKATLTADKSSKTVYMHLSSLASEDSAVYYCARGDYYGSNSLDYWGQGTSVTVSS
VL 3: DIVMTQSHLSMSTSLGDPVSITCKASQDVSTVVAWYQQKPGQSPRRLIYSASYRYIGVPDRFTGSGAGTDFTFTISSVQAEDLAVYYCQQHYSPPYTFGGGTKLEIK
B2: antiCD38_C2-CD38-1_VH5-VL3 (antibody, human IgG1, kappa, V domains shown)
VH: QVQLVQSGAEVVKSGASVKVSCKASGYTFTSFNMHWVKEAPGQGLEWIGYIYPGNGGTNYNQKFQGRATLTADTSASTAYMEISSLRSEDTAVYFCARTGGLRRAYFTYWGQGTLVTVSS
VL: DIVLTQSPATLSLSPGERATISCRASESVDSYGNGFMHWYQQKPGQPPRLLIYLASSRATGIPARFSGSGSGTDFTLTISPLEPEDFAVYYCQQNKEDPWTFGGGTKLEIKR
B3: antiCD38_C2-CD38-1_VH6-VL3 (antibody, human IgG1, kappa, V domains shown)
VH: B2 VH with S14P, V20M, G44R
VL: B2 VL

Experiments:
[1] = target: T1, recombinant human CD38 (SPR antigen of Example 2) (human, UniProt P28907 43-300); test: SPR, target binding without other targets present
[2] = target: T2, human CD38 expressed on the surface of recombinant murine preB::300.19 cells (human, UniProt P28907 1-300); test: flow cytometry on hCD38-expressing murine preB::300.19 cells, apparent KD (called EC50 in paragraph 335)
T2 construct: whole, on cells; also called hCD38-expressing cells; cells expressing human CD38

[3] = target: T1, recombinant human CD38 (SPR antigen of …); test: SPR, target binding with the other two targets in saturation
hCD38-his (SEQ ID NO: 2) = target: T3, hCD38-his (SEQ ID NO: 2) (human, UniProt P28907 45-300); test: SPR (summary table; Table K value rounded)
T3 construct: also called human CD38-histag (ID2); soluble extracellular domain of humanCD38

[4] = target: T2, human CD38 expressed on the surface of …; test: flow cytometry on CD38-expressing murine preB::300.19 cells, apparent KD
cCD38-his (SEQ ID NO: 4) = target: T4, cCD38-his (SEQ ID NO: 4) (cynomolgus monkey, UniProt Q5VAN0 46-301); test: SPR (summary table; Table K value rounded)
T4 construct: also called cyno CD38-histag (ID3); soluble extracellular domain of cynomolgusCD38

Binder	Kd [1]	Kd [2]	Kd [3]	Kd (hCD38-his (SEQ ID NO: 2))	Kd [4]	Kd (cCD38-his (SEQ ID NO: 4))
B1	1750 pM	4000 pM	2420 pM			
B2				820 pM	550 pM	
B3				310 pM		560 pM
